Data set [1] concerns HeLa Kyoto. Put plainly: solubility in G1/S (NP-40 vs SDS abundance) (log2 ratio); higher = more soluble. The following applies: cell cycle stage: G1/S.
The test system of data set [2] is HeLa Kyoto. Put plainly: melting temperature (median over replicates), in situ; higher = more thermally stable.
Data set [3] has as its system HeLa Kyoto. Put plainly: solubility change mitosis vs G1/S (difference of NP-40 vs SDS log2 ratios) (log2 ratio difference); higher = more soluble in mitosis.
Data set [4] concerns HeLa Kyoto. Put plainly: thermal stability score vs G1/S (z-score of summed log2 fold changes over temperatures); higher = more thermally stable than in G1/S.
Setting [5] is: cell cycle stage: early G1 (4.5 h after nocodazole release).
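For melting temperature (median over replicates), in situ in this document: HeLa Kyoto cells synchronized by double thymidine or nocodazole block, proteins quantified by TMT10plex mass spectrometry, three independent biological replicates.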
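For solubility change mitosis vs G1/S (difference of NP-40 vs SDS log2 ratios) in this document: synchronized HeLa Kyoto cells (double thymidine block for G1/S, nocodazole release for mitosis), protein amounts in NP-40 versus SDS lysates quantified by mass spectrometry, three biological replicates.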
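For solubility in G1/S (NP-40 vs SDS abundance) in this document: HeLa Kyoto cells arrested at G1/S by double thymidine block, proteins quantified by TMT10plex mass spectrometry in mild NP-40 versus SDS extracts, three biological replicates.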
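For thermal stability score vs G1/S (z-score of summed log2 fold changes over temperatures) in this document: synchronized HeLa Kyoto cells, proteins quantified by TMT10plex mass spectrometry, three biological replicates, mitosis taken 0.5 h after nocodazole release, G1/S directly after double thymidine block.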

As to “MSASLVRATVRAVSKRKLQPTRAALTLTPSAVNKIKQLLKDKPEHVGVKVGVRTRGCNGLSYTLEYTKTKGDSDEEVIQDGVRVFIEKKAQLTLLGTEMDYVEDKLSSEFVFNNPNIKGTCGCGESFNI [ISCA1]”, in data set [1], the “solubility in G1/S (log2)” value was 0.427. Also, the melting temperature in data set [2] (cell cycle stage: G1/S) amounted to 52.3 °C; in data set [2] (cell cycle stage: mitosis), 51.9 °C. The “solubility change mitosis (log2)” value in data set [3] is -0.0859. The thermal stability score in data set [4] (setting [5]) was -0.782; in data set [4] (cell cycle stage: mitosis), -2.35.

Turning to “MGVEGCTKCIKYLLFVFNFVFWLAGGVILGVALWLRHDPQTTNLLYLELGDKPAPNTFYVGIYILIAVGAVMMFVGFLGCYGAIQESQCLLGTFFTCLVILFACEVAAGIWGFVNKDQIAKDVKQFYDQALQQAVVDDDANNAKAVVKTFHETLDCCGSSTLTALTTSVLKNNLCPSGSNIISNLFKEDCHQKIDDLFSGKLYLIGIAAIVVAVIMIFEMILSMVLCCGIRNSSVY [CD81]”, in data set [1], the “solubility in G1/S (log2)” value was 0.0932. The melting temperature in data set [2] (cell cycle stage: G1/S) was found to be 56.1 °C. For the same substance, in data set [3], the “solubility change mitosis (log2)” value is -0.0908. In addition, the thermal stability score in data set [4] (setting [5]) was 0.287; in data set [4] (cell cycle stage: mitosis), -0.69.

As to “MAAQRRSLLQSEQQPSWTDDLPLCHLSGVGSASNRSYSADGKGTESHPPEDSWLKFRSENNCFLYGVFNGYDGNRVTNFVAQRLSAELLLGQLNAEHAEADVRRVLLQAFDVVERSFLESIDDALAEKASLQSQLPEGVPQHQLPPQYQKILERLKTLEREISGGAMAVVAVLLNNKLYVANVGTNRALLCKSTVDGLQVTQLNVDHTTENEDELFRLSQLGLDAGKIKQVGIICGQESTRRIGDYKVKYGYTDIDLLSAAKSKPIIAEPEIHGAQPLDGVTGFLVLMSEGLYKALEAAHGPGQANQEIAAMIDTEFAKQTSLDAVAQAVVDRVKRIHSDTFASGGERARFCPRHEDMTLLVRNFGYPLGEMSQPTPSPAPAAGGRVYPVSVPYSSAQSTSKTSVTLSLVMPSQGQMVNGAHSASTLDEATPTLTNQSPTLTLQSTNTHTQSSSSSSDGGLFRSRPAHSLPPGEDGRVEPYVDFAEFYRLWSVDHGEQSVVTAP [TAB1]”, the “solubility in G1/S (log2)” value in data set [1] came to 0.302. The melting temperature was determined as 49.4 °C in data set [2] (cell cycle stage: G1/S) and 49.7 °C in data set [2] (cell cycle stage: mitosis). The “solubility change mitosis (log2)” value in data set [3] is -0.0812. Further, the thermal stability score in data set [4] (setting [5]) is -0.0541; in data set [4] (cell cycle stage: mitosis), 1.34.

Consider “MGTRDDEYDYLFKVVLIGDSGVGKSNLLSRFTRNEFNLESKSTIGVEFATRSIQVDGKTIKAQIWDTAGQERYRAITSAYYRGAVGALLVYDIAKHLTYENVERWLKELRDHADSNIVIMLVGNKSDLRHLRAVPTDEARAFAEKNNLSFIETSALDSTNVEEAFKNILTEIYRIVSQKQIADRAAHDESPGNNVVDISVPPTTDGQKPNKLQCCQNL [RAB11B]”, for which the “solubility in G1/S (log2)” value in data set [1] amounted to 0.136. For the same substance, the melting temperature turned out to be 57.1 °C in data set [2] (cell cycle stage: G1/S) and 57.5 °C in data set [2] (cell cycle stage: mitosis). The “solubility change mitosis (log2)” value in data set [3] is -0.0727. The results for the thermal stability score in data set [4] (setting [5]) and in data set [4] (cell cycle stage: mitosis) were 0.344 and -0.699, respectively.

Turning to “MGSRIKQNPETTFEVYVEVAYPRTGGTLSDPEVQRQFPEDYSDQEVLQTLTKFCFPFYVDSLTVSQVGQNFTFVLTDIDSKQRFGFCRLSSGAKSCFCILSYLPWFEVFYKLLNILADYTTKRQENQWNELLETLHKLPIPDPGVSVHLSVHSYFTVPDTRELPSIPENRNLTEYFVAVDVNNMLHLYASMLYERRILIICSKLSTLTACIHGSAAMLYPMYWQHVYIPVLPPHLLDYCCAPMPYLIGIHLSLMEKVRNMALDDVVILNVDTNTLETPFDDLQSLPNDVISSLKNRLKKVSTTTGDGVARAFLKAQAAFFGSYRNALKIEPEEPITFCEEAFVSHYRSGAMRQFLQNATQLQLFKQFIDGRLDLLNSGEGFSDVFEEEINMGEYAGSDKLYHQWLSTVRKGSGAILNTVKTKANPAMKTVYKFAKDHAKMGIKEVKNRLKQKDIAENGCAPTPEEQLPKTAPSPLVEAKDPKLREDRRPITVHFGQVRPPRPHVVKRPKSNIAVEGRRTSVPSPEQPQPYRTLRESDSAEGDEAESPEQQVRKSTGPVPAPPDRAASIDLLEDVFSNLDMEAALQPLGQAKSLEDLRAPKDLREQPGTFDYQRLDLGGSERSRGVTVALKLTHPYNKLWSLGQDDMAIPSKPPAASPEKPSALLGNSLALPRRPQNRDSILNPSDKEEVPTPTLGSITIPRPQGRKTPELGIVPPPPIPRPAKLQAAGAALGDVSERLQTDRDRRAALSPGLLPGVVPQGPTELLQPLSPGPGAAGTSSDALLALLDPLSTAWSGSTLPSRPATPNVATPFTPQFSFPPAGTPTPFPQPPLNPFVPSMPAAPPTLPLVSTPAGPFGAPPASLGPAFASGLLLSSAGFCAPHRSQPNLSALSMPNLFGQMPMGTHTSPLQPLGPPAVAPSRIRTLPLARSSARAAETKQGLALRPGDPPLLPPRPPQGLEPTLQPSAPQQARDPFEDLLQKTKQDVSPSPALAPAPDSVEQLRKQWETFE [DENND1A]”, the “solubility in G1/S (log2)” value in data set [1] is 0.079. Also, the melting temperature in data set [2] (cell cycle stage: mitosis) came out at 53.6 °C. Besides, the “solubility change mitosis (log2)” value in data set [3] was -0.0536. The thermal stability score was found to be 0.0881 in data set [4] (setting [5]) and 1.02 in data set [4] (cell cycle stage: mitosis).

For SPTAN1, in data set [1], the “solubility in G1/S (log2)” value is -0.956. For the same substance, the melting temperature stood at 53 °C in data set [2] (cell cycle stage: G1/S) and 51.5 °C in data set [2] (cell cycle stage: mitosis). In addition, the “solubility change mitosis (log2)” value in data set [3] was 0.485. The thermal stability score in data set [4] (setting [5]) was -0.312; in data set [4] (cell cycle stage: mitosis), -1.93.

Source of the values: the supplement of paper PMC5998384.
